Results reported in US20090298765A1 (Takeda / Millennium, published 2009).
Where two headings read alike, the source gives them in different places. Non-standard residues stand in square brackets, D forms with d. No end group written: not given here. *: point of attachment. Propanoyl(3-indol-3-yl) = O=C(CCc1c[nH]c2ccccc12)*; Propanoyl(3-(3-pyridyl)) = O=C(CCc1cccnc1)*; Phe(4-NH2) = Nc1ccc(C[C@H](N)C(=O)O)cc1; Arg(Me) = CNC(=N)NCCC[C@H](N)C(=O)O; 4Pal = N[C@@H](Cc1ccncc1)C(=O)O; d4Pal = N[C@H](Cc1ccncc1)C(=O)O; Cha = N[C@@H](CC1CCCCC1)C(=O)O; azaGly = NNC(=O)O

B1: des(1-3)-3-(3-Pyridyl)propionyl-[AzaGly7,Arg(Me)9]MS10 (peptide)
peptide: {Propanoyl(3-(3-pyridyl))}-NSF[azaGly]L[Arg(Me)]F-NH2
SMILES: CNC(=N)NCCC[C@H](NC(=O)[C@H](CC(C)C)NC(=O)NNC(=O)[C@H](Cc1ccccc1)NC(=O)[C@H](CO)NC(=O)[C@H](CC(N)=O)NC(=O)CCc1cccnc1)C(=O)N[C@@H](Cc1ccccc1)C(N)=O
notes: also called Compound No. 322
B2: des(1-3)-3-(3-Indolyl)propionyl-MS10 (peptide)
peptide: {Propanoyl(3-indol-3-yl)}-NSFGLRF-NH2
SMILES: CC(C)C[C@H](NC(=O)CNC(=O)[C@H](Cc1ccccc1)NC(=O)[C@H](CO)NC(=O)[C@H](CC(N)=O)NC(=O)CCc1c[nH]c2ccccc12)C(=O)N[C@@H](CCCNC(=N)N)C(=O)N[C@@H](Cc1ccccc1)C(N)=O
notes: also called Compound No. 114
B3: des(1)-[D-Tyr2,D-Pya(4)3,AzaGly7,Arg(Me)9]MS10 (peptide)
peptide: [dY][d4Pal]NSF[azaGly]L[Arg(Me)]F-NH2
modifications: N-terminus assumed
SMILES: CNC(=N)NCCC[C@H](NC(=O)[C@H](CC(C)C)NC(=O)NNC(=O)[C@H](Cc1ccccc1)NC(=O)[C@H](CO)NC(=O)[C@H](CC(N)=O)NC(=O)[C@@H](Cc1ccncc1)NC(=O)[C@H](N)Cc1ccc(O)cc1)C(=O)N[C@@H](Cc1ccccc1)C(N)=O
notes: also called Compound No. 305; KiSS1-305
B4: [D-Tyr1,Cha3,Arg(Me)9]MS10 (peptide)
peptide: [dY]N[Cha]NSFGL[Arg(Me)]F-NH2
modifications: N-terminus assumed
SMILES: CNC(=N)NCCC[C@H](NC(=O)[C@H](CC(C)C)NC(=O)CNC(=O)[C@H](Cc1ccccc1)NC(=O)[C@H](CO)NC(=O)[C@H](CC(N)=O)NC(=O)[C@H](CC1CCCCC1)NC(=O)[C@H](CC(N)=O)NC(=O)[C@H](N)Cc1ccc(O)cc1)C(=O)N[C@@H](Cc1ccccc1)C(N)=O
notes: also called Compound No. 171

How the values were obtained:
[1] = target: human OT7T175 (metastin receptor) (human) (UniProt Q969F8); experiment: cell-based or functional assay
[2] = target: human OT7T175 (metastin receptor) (human) (UniProt Q969F8); experiment: competition with Cy-5 metastin (40-54) on hOT7T175-CHO cells, FMAT
[3] = target: T1, human OT7T175 (metastin receptor) (human, UniProt Q969F8 1-398); experiment: cell-based or functional assay
[4] = target: T1, human OT7T175 (metastin receptor); experiment: cell-based or functional assay; remark: listed apart in the source
[5] = target: T1, human OT7T175 (metastin receptor); experiment: cell-based or functional assay; remark: listed apart in the source
[6] = target: T1, human OT7T175 (metastin receptor); experiment: cell-based or functional assay; remark: listed apart in the source
[7] = target: T1, human OT7T175 (metastin receptor); experiment: competition with Cy-5 metastin (40-54) on hOT7T175-CHO cells, FMAT
[8] = target: T1, human OT7T175 (metastin receptor); experiment: cell-based or functional assay; remark: listed apart in the source

T1 sequence (Q969F8 whole entry L364H): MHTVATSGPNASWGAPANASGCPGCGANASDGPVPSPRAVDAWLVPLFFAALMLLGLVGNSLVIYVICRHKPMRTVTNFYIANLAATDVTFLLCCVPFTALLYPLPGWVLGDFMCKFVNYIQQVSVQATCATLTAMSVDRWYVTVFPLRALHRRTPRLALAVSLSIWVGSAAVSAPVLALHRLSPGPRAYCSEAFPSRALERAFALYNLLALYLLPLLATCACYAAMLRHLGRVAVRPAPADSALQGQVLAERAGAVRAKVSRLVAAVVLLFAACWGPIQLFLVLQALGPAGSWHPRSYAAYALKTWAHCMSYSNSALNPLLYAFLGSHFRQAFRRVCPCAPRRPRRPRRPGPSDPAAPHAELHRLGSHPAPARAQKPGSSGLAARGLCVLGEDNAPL
Sequence of human OT7T175 (metastin receptor) (human) (Q969F8 whole entry L364H): as above

| Molecule | Ca ion level-increasing activity (FLIPR, 40 s) [4] [EC50/MS10 EC50] | IC50 [7] [nM] | Ca ion level-increasing activity (FLIPR) [8] | further results |
| --- | --- | --- | --- | --- |
| [D-Tyr1,D-Asn2,D-Trp3,Arg(Me)9]MS10 (peptide) | – | – | – | Ca ion level-increasing activity (FLIPR) (x Metastin (1-54)) [1]: 1 |
| [D-Tyr1,D-Asn2,D-Trp3,AzaGly7,Arg(Me)9]MS10 (peptide) | – | – | – | Ca ion level-increasing activity (FLIPR) (x Metastin (1-54)) [1]: 1; IC50 [2]: 49 nM |
| des(4-5)-MS10 (peptide) | – | – | – | Ca ion level-increasing activity (FLIPR) (x Metastin (1-54)) [3]: 1 |
| des(4-5)-Boc-MS10 (peptide) | – | – | – | Ca ion level-increasing activity (FLIPR) (x Metastin (1-54)) [3]: 1 |
| [dY][dN][4Pal]NSF[azaGly]L[Arg(Me)]F-NH2 (also called Compound No. 303) [[D-Tyr1,D-Asn2,Pya(4)3,AzaGly7,Arg(Me)9]MS10] | 6.9 | 0.5 | – | cell growth inhibition activity, IC50 [5]: 41.2 nM; Ca ion level-increasing activity (FLIPR) [6]: 5 x Metastin (1-54) |
| [dY]NWNSFGL[Arg(Me)]F-NH2 [[D-Tyr1,Arg(Me)9]MS10] | 1.6 | – | – | cell growth inhibition activity, IC50 [5]: 87 nM |
| YNWNSXGLRF (Cha6; C-terminal amide, also called Compound No. 156) [[Cha6]MS10] | 0.9 | 49 | 2 x Metastin (1-54) | – |
| [dY]NWNSFGLRF-NH2 [[D-Tyr1]MS10] | 1.6 | – | 30 x Metastin (1-54) | – |
| B1 | 5.4 | 54 | – | cell growth inhibition activity, IC50 [5]: 71.9 nM; Ca ion level-increasing activity (FLIPR) [6]: 1 x Metastin (1-54) |
| YNWNSFGLRX (Nal(1)10; C-terminal amide, also called Compound No. 133) [[Nal(1)10]MS10] | – | 330 | 3 x Metastin (1-54) | – |
| YN[dW]NSFGLRF-NH2 [[D-Trp3]MS10] | 1.6 | – | 30 x Metastin (1-54) | – |
| YNWNSFGLR[Phe(4-NH2)]-NH2 (also called Compound No. 131) [[Phe(4NH2)10]MS10] | – | 120 | 3 x Metastin (1-54) | – |
| LPNYNWNSFGLRF-NH2 (also called Compound No. 32) [Leu-Pro-Asn-MS10] | – | 25 | 10 x Metastin (1-54) | – |
| B2 | 4.1 | 550 | 3 x Metastin (1-54) | – |
| [dY]N[4Pal]NSF[azaGly]L[Arg(Me)]F-NH2 (also called Compound No. 286) [[D-Tyr1,Pya(4)3,AzaGly7,Arg(Me)9]MS10] | – | 17 | – | cell growth inhibition activity, IC50 [5]: 18.3 nM; Ca ion level-increasing activity (FLIPR) [6]: 2 x Metastin (1-54) |
| B3 | 2 | 1.3 | – | cell growth inhibition activity, IC50 [5]: 8.94 nM; Ca ion level-increasing activity (FLIPR) [6]: 5 x Metastin (1-54) |
| YN[dW]NSFGL[Arg(Me)]F-NH2 (also called Compound No. 143) [[D-Trp3,Arg(Me)9]MS10] | – | 7.7 | 3 x Metastin (1-54) | – |
| B4 | – | 110 | 10 x Metastin (1-54) | – |
| YNWNSXGLRF (Nal(2)6; C-terminal amide, also called Compound No. 152) [[Nal(2)6]MS10] | 1.4 | 180 | 5 x Metastin (1-54) | – |
| YNWNSFGLXF (Har9; C-terminal amide, also called Compound No. 97) [[Har9]MS10] | 2.9 | 370 | 10 x Metastin (1-54) | – |
| YNWNSFGLRW-NH2 (also called Compound No. 134) [[Trp10]MS10] | 0.5 | 110 | 30 x Metastin (1-54) | – |
| YNWNSFGLRY-NH2 (also called Compound No. 109) [[Tyr10]MS10] | 2.6 | 23 | 20 x Metastin (1-54) | – |
| YNWNSXGLRF (Nal(1)6; C-terminal amide, also called Compound No. 151) [[Nal(1)6]MS10] | – | 300 | 1 x Metastin (1-54) | – |
